Here are results for two sequences from patent US20140072613A1, “Compositions and Methods for Treating Cutaneous Scarring” (priority 2012, published 2014).

Experiment in all cases: biochemical
Assay type in all cases: biochemical

For assay [1], the target named is 266 human kinases (Homo sapiens, UniProt O14757). The following applies: CHK1(h); 100 μM. In outline: (§1)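 Kinase phosphorylates cationic substrate with radiolabelled ATP phosphate; substrate retained on anionic filter membrane; scintillation count; % of 100% activity control.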
In assay [2] the target is 266 human kinases (Homo sapiens, UniProt Q9P0L2). The note with it: MARK1(h); 100 μM. The procedure, abridged: as §1
Assay [3] concerns the target 266 human kinases (Homo sapiens, UniProt Q00526). The note with it: CDK3/cyclinE(h); 100 μM. In outline:
as §1

The target of assay [4] is 266 human kinases (Homo sapiens, UniProt P00533, T790M). The note with it: EGFR(T790M)(h); 100 μM. The procedure, abridged:
as §1

Assay [5] deals with 266 human kinases (Homo sapiens, UniProt P36888, D835Y). The note with it: Flt3(D835Y)(h); 100 μM. The procedure, abridged: as §1
Assay [6] deals with 266 human kinases (Homo sapiens, UniProt P10721, V560G). The note with it: cKit(V560G)(h); 100 μM. The procedure, abridged: as §1
The target of assay [7] is T1, 266 human kinases (Homo sapiens, UniProt P21709).
T1 sequence (P21709 26-976): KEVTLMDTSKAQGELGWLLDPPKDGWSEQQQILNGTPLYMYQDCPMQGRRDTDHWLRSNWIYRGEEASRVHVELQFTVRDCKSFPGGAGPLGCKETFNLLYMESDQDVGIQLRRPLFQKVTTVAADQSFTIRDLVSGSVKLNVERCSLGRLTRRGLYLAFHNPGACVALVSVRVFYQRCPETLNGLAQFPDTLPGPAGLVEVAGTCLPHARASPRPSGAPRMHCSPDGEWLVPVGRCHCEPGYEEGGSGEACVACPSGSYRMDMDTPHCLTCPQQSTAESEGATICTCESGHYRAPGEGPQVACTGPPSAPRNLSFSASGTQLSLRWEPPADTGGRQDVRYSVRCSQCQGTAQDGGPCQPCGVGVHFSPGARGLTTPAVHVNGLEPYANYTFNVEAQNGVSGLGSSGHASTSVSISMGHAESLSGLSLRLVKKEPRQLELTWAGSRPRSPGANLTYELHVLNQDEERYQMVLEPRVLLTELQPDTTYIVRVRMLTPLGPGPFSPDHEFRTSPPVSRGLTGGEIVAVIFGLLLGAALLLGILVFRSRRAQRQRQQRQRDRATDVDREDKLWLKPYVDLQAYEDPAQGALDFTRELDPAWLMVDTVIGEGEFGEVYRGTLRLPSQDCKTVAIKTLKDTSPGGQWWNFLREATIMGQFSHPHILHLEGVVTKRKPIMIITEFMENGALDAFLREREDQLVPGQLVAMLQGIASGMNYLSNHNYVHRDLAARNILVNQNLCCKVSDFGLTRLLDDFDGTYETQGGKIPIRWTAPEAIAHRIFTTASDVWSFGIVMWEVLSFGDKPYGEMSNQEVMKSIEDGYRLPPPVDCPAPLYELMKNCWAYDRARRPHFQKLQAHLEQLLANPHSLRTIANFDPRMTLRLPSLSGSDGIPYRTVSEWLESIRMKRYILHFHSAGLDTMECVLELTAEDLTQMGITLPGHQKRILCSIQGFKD
The following applies: EphA1(h); 100 μM. In outline:
as §1

The target of assay [8] is 266 human kinases (Homo sapiens, UniProt P16234, V561D). The following applies: PDGFRα(V561D)(h); 100 μM. The procedure, abridged:
as §1

For assay [9], the target named is 266 human kinases (Homo sapiens, UniProt O96017). The following applies: CHK2(h); 100 μM. In outline: as §1
The target in assay [10] is 266 human kinases (Homo sapiens, UniProt P04629). The following applies: TrkA(h); 100 μM. The procedure, abridged:
as §1

Assay [11] addresses T2, 266 human kinases (Homo sapiens, UniProt Q9H2K8).
T2 sequence (Q9H2K8 1-898): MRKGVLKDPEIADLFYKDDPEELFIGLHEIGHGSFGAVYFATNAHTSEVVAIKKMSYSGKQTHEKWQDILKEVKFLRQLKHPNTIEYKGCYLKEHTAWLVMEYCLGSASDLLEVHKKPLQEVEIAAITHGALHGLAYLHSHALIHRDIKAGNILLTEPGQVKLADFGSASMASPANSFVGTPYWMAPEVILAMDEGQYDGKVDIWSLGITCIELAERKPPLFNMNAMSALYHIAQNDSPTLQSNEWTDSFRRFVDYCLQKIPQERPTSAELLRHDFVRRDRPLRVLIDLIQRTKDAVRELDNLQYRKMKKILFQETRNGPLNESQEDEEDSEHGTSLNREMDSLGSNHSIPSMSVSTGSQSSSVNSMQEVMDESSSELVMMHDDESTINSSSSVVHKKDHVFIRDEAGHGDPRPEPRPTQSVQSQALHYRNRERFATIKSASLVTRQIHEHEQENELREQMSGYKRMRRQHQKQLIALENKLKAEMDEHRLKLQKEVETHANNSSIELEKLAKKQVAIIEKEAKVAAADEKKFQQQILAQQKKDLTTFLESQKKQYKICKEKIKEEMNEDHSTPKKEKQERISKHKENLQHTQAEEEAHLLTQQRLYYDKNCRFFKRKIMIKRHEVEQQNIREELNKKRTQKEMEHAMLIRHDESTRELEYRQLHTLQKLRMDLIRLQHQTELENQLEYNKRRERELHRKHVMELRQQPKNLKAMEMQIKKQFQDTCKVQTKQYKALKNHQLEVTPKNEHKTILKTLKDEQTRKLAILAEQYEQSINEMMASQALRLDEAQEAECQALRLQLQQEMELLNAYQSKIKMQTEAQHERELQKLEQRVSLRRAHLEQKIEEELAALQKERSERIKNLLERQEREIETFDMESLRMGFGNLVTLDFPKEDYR
The following applies: TAO3(h); 100 μM. In outline: as §1

The target in assay [12] is 266 human kinases (Homo sapiens, UniProt Q02763, R849W). The following applies: Tie2(R849W)(h); 100 μM. The procedure, abridged: as §1
Assay [13] addresses 266 human kinases (Homo sapiens, UniProt P49760). The following applies: CLK2(h); 100 μM. The procedure, abridged:
as §1

Sequence of 266 human kinases (Homo sapiens, UniProt P49760) (P49760 whole entry): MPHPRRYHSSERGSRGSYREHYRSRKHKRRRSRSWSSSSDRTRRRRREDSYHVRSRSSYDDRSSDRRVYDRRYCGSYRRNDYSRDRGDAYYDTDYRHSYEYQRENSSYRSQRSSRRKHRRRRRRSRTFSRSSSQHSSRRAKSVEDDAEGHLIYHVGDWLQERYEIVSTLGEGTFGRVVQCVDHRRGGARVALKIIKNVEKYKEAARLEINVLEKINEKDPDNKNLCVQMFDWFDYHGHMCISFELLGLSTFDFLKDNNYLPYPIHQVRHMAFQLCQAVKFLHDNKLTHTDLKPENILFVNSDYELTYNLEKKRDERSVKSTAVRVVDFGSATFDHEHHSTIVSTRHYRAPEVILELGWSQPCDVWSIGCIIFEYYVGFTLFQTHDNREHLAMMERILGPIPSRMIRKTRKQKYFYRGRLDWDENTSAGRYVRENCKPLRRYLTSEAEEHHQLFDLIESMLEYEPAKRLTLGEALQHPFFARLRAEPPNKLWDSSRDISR
Sequence of 266 human kinases (Homo sapiens, UniProt O14757) (O14757 whole entry): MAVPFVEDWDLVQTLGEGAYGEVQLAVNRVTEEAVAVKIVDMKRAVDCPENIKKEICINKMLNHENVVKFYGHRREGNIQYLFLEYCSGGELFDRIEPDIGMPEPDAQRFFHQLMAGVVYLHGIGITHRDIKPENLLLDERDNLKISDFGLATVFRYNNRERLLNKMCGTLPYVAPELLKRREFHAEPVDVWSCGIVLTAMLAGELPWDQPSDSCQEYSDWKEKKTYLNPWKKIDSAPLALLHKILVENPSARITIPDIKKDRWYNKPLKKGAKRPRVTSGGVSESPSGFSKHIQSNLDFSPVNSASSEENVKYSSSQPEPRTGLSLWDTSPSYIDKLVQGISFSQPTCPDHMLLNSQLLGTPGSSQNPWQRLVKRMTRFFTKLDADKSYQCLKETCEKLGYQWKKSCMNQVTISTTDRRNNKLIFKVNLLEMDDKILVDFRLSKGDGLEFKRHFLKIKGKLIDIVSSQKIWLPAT
Sequence of 266 human kinases (Homo sapiens, UniProt Q9P0L2) (Q9P0L2 whole entry): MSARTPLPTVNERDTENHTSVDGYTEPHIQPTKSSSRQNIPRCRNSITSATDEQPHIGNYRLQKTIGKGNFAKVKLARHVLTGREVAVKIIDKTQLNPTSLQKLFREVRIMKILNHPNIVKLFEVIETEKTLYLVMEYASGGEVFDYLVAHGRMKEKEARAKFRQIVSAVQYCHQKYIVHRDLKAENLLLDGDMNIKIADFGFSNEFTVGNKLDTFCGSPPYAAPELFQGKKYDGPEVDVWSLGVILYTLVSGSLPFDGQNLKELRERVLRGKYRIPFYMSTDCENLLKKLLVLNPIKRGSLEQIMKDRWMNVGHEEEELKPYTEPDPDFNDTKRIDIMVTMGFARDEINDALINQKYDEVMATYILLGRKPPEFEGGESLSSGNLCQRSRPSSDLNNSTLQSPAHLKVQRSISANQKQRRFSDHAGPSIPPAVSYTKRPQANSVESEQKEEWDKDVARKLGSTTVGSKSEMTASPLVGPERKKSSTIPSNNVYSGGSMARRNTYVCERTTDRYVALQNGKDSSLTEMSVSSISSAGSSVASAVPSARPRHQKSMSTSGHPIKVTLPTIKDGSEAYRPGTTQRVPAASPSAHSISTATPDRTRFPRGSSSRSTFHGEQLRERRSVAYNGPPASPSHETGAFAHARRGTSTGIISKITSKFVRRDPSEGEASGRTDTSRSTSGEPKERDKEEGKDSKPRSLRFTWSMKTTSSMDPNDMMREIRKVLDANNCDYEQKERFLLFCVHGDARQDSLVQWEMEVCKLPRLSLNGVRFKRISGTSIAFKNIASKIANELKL
Sequence of 266 human kinases (Homo sapiens, UniProt Q02763, R849W) (Q02763 23-1124 R849W): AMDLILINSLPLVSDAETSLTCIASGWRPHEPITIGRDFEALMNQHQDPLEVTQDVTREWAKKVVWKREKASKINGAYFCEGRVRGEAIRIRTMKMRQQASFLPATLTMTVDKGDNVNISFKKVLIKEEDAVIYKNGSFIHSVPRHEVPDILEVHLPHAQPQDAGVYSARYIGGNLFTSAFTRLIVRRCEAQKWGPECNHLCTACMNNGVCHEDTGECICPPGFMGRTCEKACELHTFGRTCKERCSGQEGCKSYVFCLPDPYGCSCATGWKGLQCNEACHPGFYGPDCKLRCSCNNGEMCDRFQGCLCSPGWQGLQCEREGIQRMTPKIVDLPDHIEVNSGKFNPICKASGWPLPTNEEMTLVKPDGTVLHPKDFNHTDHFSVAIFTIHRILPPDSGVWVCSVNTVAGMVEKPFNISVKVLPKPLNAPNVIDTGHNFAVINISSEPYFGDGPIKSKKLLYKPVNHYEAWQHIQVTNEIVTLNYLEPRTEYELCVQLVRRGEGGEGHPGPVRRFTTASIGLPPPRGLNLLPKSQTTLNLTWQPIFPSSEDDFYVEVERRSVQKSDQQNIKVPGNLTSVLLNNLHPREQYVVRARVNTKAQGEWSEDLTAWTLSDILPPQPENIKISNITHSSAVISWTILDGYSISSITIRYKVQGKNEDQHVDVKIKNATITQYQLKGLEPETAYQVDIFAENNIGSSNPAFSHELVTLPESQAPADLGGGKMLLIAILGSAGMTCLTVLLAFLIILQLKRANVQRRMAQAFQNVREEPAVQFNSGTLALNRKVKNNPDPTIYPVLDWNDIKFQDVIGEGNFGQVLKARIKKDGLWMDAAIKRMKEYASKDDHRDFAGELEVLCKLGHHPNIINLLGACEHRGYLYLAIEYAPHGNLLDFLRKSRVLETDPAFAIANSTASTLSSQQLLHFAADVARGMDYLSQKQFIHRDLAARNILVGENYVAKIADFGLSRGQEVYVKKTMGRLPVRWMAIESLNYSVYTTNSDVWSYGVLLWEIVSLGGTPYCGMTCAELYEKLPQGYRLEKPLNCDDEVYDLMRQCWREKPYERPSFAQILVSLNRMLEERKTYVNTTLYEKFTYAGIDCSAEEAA
Sequence of 266 human kinases (Homo sapiens, UniProt P16234, V561D) (P16234 24-1089 V561D): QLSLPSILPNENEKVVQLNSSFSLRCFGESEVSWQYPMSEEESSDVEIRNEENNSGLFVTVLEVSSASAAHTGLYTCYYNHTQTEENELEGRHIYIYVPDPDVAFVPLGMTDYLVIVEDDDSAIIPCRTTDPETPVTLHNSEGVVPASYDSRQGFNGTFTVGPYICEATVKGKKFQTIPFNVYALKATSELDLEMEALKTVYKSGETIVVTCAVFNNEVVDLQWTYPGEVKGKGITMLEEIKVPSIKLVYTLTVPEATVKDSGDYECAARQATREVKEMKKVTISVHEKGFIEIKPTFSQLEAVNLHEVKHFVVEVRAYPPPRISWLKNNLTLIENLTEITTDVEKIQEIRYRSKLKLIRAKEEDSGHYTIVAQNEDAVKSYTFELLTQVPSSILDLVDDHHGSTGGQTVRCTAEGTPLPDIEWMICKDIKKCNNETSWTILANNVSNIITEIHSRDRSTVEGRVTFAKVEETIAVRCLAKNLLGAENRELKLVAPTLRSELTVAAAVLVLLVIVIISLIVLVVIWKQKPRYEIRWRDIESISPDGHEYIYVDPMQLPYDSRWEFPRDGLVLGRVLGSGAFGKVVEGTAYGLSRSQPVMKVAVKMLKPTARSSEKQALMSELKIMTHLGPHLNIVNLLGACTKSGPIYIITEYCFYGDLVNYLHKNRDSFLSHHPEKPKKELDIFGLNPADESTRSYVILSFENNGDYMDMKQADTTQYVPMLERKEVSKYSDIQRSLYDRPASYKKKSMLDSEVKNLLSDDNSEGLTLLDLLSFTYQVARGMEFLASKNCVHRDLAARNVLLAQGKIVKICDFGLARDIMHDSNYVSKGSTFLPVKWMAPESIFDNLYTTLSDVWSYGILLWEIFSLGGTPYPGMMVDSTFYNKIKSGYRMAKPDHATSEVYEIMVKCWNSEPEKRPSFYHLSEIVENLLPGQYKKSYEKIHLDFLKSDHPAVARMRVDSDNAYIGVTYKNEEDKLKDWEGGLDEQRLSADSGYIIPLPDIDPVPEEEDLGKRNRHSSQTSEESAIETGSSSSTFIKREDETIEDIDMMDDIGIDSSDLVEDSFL
Sequence of 266 human kinases (Homo sapiens, UniProt O96017) (O96017 whole entry): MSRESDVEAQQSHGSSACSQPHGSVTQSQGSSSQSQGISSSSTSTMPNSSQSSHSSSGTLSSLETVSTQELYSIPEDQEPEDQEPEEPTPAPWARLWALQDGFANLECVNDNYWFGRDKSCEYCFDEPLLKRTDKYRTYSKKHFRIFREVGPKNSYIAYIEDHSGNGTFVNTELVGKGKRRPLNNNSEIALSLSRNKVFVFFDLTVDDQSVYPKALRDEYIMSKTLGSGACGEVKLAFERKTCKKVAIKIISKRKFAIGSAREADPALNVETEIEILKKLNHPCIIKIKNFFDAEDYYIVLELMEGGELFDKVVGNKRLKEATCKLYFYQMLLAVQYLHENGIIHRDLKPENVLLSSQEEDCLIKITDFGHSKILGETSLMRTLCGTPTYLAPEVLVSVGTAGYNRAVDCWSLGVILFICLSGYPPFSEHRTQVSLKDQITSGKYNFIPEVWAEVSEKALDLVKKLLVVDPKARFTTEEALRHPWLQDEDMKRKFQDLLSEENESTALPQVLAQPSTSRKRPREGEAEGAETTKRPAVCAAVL
Sequence of 266 human kinases (Homo sapiens, UniProt Q00526) (Q00526 whole entry): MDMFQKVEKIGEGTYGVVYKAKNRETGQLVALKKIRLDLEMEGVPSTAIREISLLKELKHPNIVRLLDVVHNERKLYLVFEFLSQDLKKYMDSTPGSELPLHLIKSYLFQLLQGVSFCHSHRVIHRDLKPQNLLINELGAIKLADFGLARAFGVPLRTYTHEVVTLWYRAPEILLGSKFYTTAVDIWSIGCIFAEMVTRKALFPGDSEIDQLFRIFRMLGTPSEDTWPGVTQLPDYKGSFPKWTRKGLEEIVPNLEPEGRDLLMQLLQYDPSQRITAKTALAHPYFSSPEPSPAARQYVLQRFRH

Turning to “HRRIKAWLKKIKALARQLGVAA (mammal) [MMI-0500]”, the “% activity” value was found to be 65% with 266 human kinases [1]; 110% with 266 human kinases [2]; 8% with 266 human kinases [3]; 70% with 266 human kinases [4]; 65% with 266 human kinases [5]; 198% with 266 human kinases [6]. For the same sequence, the “% activity” value in the assay with 266 human kinases [7] was determined as 40%; with 266 human kinases [8], 146%; with 266 human kinases [9], 13%; with 266 human kinases [10], 24%; in the assay with 266 human kinases [11], 12%.

For “YARAAARQARAKALNRQLGVA (mammal) [MMI-0200]”, the “% activity” value in the assay with 266 human kinases [12] was 89%; in the assay with 266 human kinases [13] it was 97%.
